The text below walks through data of PMC12279963 (Nature Communications, 2025).

Substitutions are numbered along the chain they refer to. Names and notes keep the numbering of the source.

In test [1] the target is T1, EcPBP1b^C794A (pSI233), truncation 58-804, Cy3-labelled at C776 (E. coli, UniProt P02919 58-804, C794A, Cy3 (sulfo-Cy3-maleimide) on C776).
T1 sequence (looked up): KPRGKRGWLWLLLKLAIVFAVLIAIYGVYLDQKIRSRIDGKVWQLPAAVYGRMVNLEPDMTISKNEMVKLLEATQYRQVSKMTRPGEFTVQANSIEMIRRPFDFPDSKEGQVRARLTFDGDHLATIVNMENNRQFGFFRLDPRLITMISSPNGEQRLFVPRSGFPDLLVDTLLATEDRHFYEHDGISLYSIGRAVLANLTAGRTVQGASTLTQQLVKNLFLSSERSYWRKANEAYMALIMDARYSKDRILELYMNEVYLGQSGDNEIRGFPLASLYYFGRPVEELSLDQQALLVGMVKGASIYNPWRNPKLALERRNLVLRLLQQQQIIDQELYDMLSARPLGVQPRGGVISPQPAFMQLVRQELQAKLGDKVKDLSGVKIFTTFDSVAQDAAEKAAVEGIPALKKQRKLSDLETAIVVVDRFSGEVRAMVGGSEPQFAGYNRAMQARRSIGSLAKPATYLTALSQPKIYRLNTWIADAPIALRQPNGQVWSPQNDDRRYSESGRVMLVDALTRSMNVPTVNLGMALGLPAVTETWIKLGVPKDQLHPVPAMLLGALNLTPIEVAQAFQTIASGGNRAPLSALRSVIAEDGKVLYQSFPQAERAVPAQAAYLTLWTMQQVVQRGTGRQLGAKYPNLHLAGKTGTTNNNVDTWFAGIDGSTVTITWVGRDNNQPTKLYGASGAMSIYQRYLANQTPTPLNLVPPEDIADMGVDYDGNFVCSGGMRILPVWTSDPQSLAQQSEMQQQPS
Description: FRET or BRET. Background: In BRET a luciferase serves as donor, and the signal depends on an acceptor being close.

Test [2] addresses T2, EcPBP1b^82-804 (pSI199), TM domain substituted with an N-terminal cysteine acylation site, ALFA-tagged (E. coli) (UniProt P02919).
T2 sequence (P02919 82-804, looked up): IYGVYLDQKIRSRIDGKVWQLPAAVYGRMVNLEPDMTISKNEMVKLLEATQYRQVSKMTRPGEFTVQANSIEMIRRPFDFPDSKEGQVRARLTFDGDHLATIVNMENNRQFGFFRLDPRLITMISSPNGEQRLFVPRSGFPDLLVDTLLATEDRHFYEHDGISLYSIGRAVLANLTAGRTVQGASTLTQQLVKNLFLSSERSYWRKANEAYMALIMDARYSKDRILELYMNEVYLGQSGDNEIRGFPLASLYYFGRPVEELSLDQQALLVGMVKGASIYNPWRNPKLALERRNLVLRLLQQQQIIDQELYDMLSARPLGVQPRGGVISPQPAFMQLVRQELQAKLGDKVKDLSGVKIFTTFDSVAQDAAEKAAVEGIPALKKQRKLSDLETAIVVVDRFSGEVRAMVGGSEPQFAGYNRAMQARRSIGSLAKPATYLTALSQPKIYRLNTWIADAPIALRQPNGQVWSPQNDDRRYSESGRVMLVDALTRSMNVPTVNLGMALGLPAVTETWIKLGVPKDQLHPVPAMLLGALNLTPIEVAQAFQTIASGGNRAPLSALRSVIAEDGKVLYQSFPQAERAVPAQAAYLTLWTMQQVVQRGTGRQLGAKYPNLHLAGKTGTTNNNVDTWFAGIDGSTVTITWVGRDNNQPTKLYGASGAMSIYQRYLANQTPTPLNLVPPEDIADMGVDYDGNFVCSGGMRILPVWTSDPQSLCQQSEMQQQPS
Put plainly: BLI. A general note: Biolayer interferometry detects binding as a change in optical thickness at a sensor tip.

B1: EcLpoB^S211C (pSI204), truncation 21-213, Cy5-labelled (natural protein, E. coli, UniProt P0AB38 21-213, looked up)
chain: VGQREPAPVEEVKPAPEQPAEPQQPVPTVPSVPTIPQQPGPIEHEDQTAPPAPHIRHYDWNGAMQPMVSKMLGADGVTAGSVLLVDSVNNRTNGSLNAAEATETLRNALANNGKFTLVSAQQLSMAKQQLGLSPQDSLGTRSKAIGIARNVGAHYVLYSSASGNVNAPTLQMQLMLVQTGEIIWSGKGAVCQQ
modifications: Cy5 (sulfo-Cy5-maleimide) on C211
As usually defined, the Kd is the equilibrium constant for the complex coming apart. Read a high Kd as weaker binding. Molecule B1 came in with a Kd in test [1] of 0.9 µM.

B2: LpoB^64-213 (pSI259), wild type (domain or fragment)
chain: HEDQTAPPAPHIRHYDWNGAMQPMVSKMLGADGVTAGSVLLVDSVNNRTNGSLNAAEATETLRNALANNGKFTLVSAQQLSMAKQQLGLSPQDSLGTRSKAIGIARNVGAHYVLYSSASGNVNAPTLQMQLMLVQTGEIIWSGKGAVSQQ
The molecule B2 returned an equilibrium dissociation constant (Kd) in test [2] of 0.915 µM.

B3: LpoB^64-213 S157V Y178W (domain or fragment)
chain: B2 chain with S94V, Y115W
With B3, in test [2], the Kd came out at 0.024 µM.

B4: LpoB^64-213 A164S S180I S157V (combined) (domain or fragment)
chain: B2 chain with S94V, A101S, S117I
For the molecule B4, the Kd in test [2] was determined as 0.009 µM.
